Reference: the supplement of paper PMC6757056
± gives the standard deviation of the averaged measurements.

B1: library; a variant is named by its letters at N, in order (parent)
chain: GCUGUCACCGAGAAACUGUGAAGUAUAUCUUAAACCUGGGCACUUAAAAGAUAUAUGGAGUUAGUAGUGCAACCUGCUCGGUCUGAUGAGUCCNNNNNNGGACGAAACAGC

Tests used:
[1] = variants of: B1; assay: FACS-Seq fitted mean relative fluorescence mCherry/BFP without ligand (log10 relative fluorescence); HEK293T; ligand: cyclic di-GMP (c-di-GMP-II aptamer); higher = higher reporter protein expression; conditions: ligand present: no
Summary of the method: (§1)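 Genomic DNA from 6 mCherry/BFP sort bins was PCR-amplified, barcoded and sequenced on MiSeq. The sorted cells were enriched HEK293T libraries, lentivirally transduced with a ribozyme-switch mCherry reporter and an EF1α-BFP marker, incubated with or without ligand for 48 h. Fluorescence derives from a normal fit to the bin counts. The fit was on log10(mCherry/BFP), and means were scaled to five spiked-in control ribozymes.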

[2] = variants of: B1; assay: normalized RNA/DNA level without ligand (relative to sTRSVctl = 100) (log10 (% of sTRSVctl)); HEK293T; ligand: cyclic di-GMP (c-di-GMP-II aptamer); higher = less ribozyme self-cleavage, higher mRNA level; conditions: reporter: mCherry (pCS4076), ligand present: no
Summary of the method: (§2)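 RNA level was computed as RNA reads over DNA reads divided by a spiked-in non-cleaving sequence or by the top sequences, then scaled and log-transformed. Scaling was ×100 with log10, the top group was 25 sequences, and the threshold was ≥100 DNA reads. The reads came from HEK293T cells transfected at 4 µg per 6-well well with ribozyme switch library plasmids (mCherry, or eGFP in some ligand experiments). Total RNA was extracted with EDTA 72 h after transfection, with any ligand added 1 h before it.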

[3] = variants of: B1; assay: FACS-Seq fitted mean relative fluorescence mCherry/BFP with ligand (log10 relative fluorescence); HEK293T; ligand: cyclic di-GMP (c-di-GMP-II aptamer); ligand concentration (+) FACS-Seq: 1 mM; higher = higher reporter protein expression; conditions: ligand present: yes
Summary of the method: as §1

[4] = variants of: B1; assay: normalized RNA/DNA level with ligand (relative to sTRSVctl = 100) (log10 (% of sTRSVctl)); HEK293T; ligand: cyclic di-GMP (c-di-GMP-II aptamer); ligand concentration (+) RNA-Seq: 1 mM; higher = less ribozyme self-cleavage, higher mRNA level; conditions: reporter: mCherry (pCS4076), ligand present: yes
Summary of the method: as §2

Variant: CUAUCU
- FACS-Seq fitted mean (log10) [1]: -0.234 ± 0.066
- normalized RNA/DNA level without ligand (log10) [2]: 1.62 ± 0.021
- FACS-Seq fitted mean (log10) [3]: -0.142 ± 0.059
- normalized RNA/DNA level with ligand (log10) [4]: 1.76 ± 0.11

Variant: UUACCC
- FACS-Seq fitted mean (log10) [1]: -0.256 ± 0.059
- normalized RNA/DNA level without ligand (log10) [2]: 1.798 ± 0.0066
- FACS-Seq fitted mean (log10) [3]: 0.0203 ± 0.12
- normalized RNA/DNA level with ligand (log10) [4]: 1.88 ± 0.11

Variant: UUACCA
- FACS-Seq fitted mean (log10) [1]: -0.0643 ± 0.075
- normalized RNA/DNA level without ligand (log10) [2]: 1.75 ± 0.055
- FACS-Seq fitted mean (log10) [3]: 0.275 ± 0.047
- normalized RNA/DNA level with ligand (log10) [4]: 1.84 ± 0.1

Variant: GUGAAA
- FACS-Seq fitted mean (log10) [1]: -0.574 ± 0.012
- normalized RNA/DNA level without ligand (log10) [2]: 1.41 ± 0.17
- FACS-Seq fitted mean (log10) [3]: -0.227 ± 0.085
- normalized RNA/DNA level with ligand (log10) [4]: 1.62 ± 0.059

Variant: GUGAAG
- FACS-Seq fitted mean (log10) [1]: -0.453 ± 0.027
- normalized RNA/DNA level without ligand (log10) [2]: 1.5 ± 0.067
- FACS-Seq fitted mean (log10) [3]: -0.278 ± 0.08
- normalized RNA/DNA level with ligand (log10) [4]: 1.66 ± 0.064

Variant: GUGAAU
- FACS-Seq fitted mean (log10) [1]: -0.688 ± 0.083
- normalized RNA/DNA level without ligand (log10) [2]: 1.57 ± 0.07
- FACS-Seq fitted mean (log10) [3]: -0.318 ± 0.04
- normalized RNA/DNA level with ligand (log10) [4]: 1.75 ± 0.12

Variant: GUCGGA
- FACS-Seq fitted mean (log10) [1]: -0.0744 ± 0.052
- normalized RNA/DNA level without ligand (log10) [2]: 1.51 ± 0.073
- FACS-Seq fitted mean (log10) [3]: 0.242 ± 0.025
- normalized RNA/DNA level with ligand (log10) [4]: 1.7 ± 0.071

Variant: UUCACU
- FACS-Seq fitted mean (log10) [1]: -0.67 ± 0.15
- normalized RNA/DNA level without ligand (log10) [2]: 1.73 ± 0.018
- FACS-Seq fitted mean (log10) [3]: -0.577 ± 0.18
- normalized RNA/DNA level with ligand (log10) [4]: 1.85 ± 0.1

Variant: UUCCGU
- FACS-Seq fitted mean (log10) [1]: 0.0201 ± 0.13
- normalized RNA/DNA level without ligand (log10) [2]: 1.7 ± 0.02
- FACS-Seq fitted mean (log10) [3]: 0.296 ± 0.053
- normalized RNA/DNA level with ligand (log10) [4]: 1.83 ± 0.08

Variant: GUCAGG
- FACS-Seq fitted mean (log10) [1]: -1.25 ± 0.11
- normalized RNA/DNA level without ligand (log10) [2]: 1.74 ± 0.063
- FACS-Seq fitted mean (log10) [3]: -0.78 ± 0.093
- normalized RNA/DNA level with ligand (log10) [4]: 1.81 ± 0.087

Variant: CUCCUA
- FACS-Seq fitted mean (log10) [1]: -0.0767 ± 0.066
- normalized RNA/DNA level without ligand (log10) [2]: 1.44 ± 0.12
- FACS-Seq fitted mean (log10) [3]: 0.0398 ± 0.14
- normalized RNA/DNA level with ligand (log10) [4]: 1.68 ± 0.14

Variant: UUGAUG
- FACS-Seq fitted mean (log10) [1]: -0.5233 ± 0.005
- normalized RNA/DNA level without ligand (log10) [2]: 1.547 ± 0.013
- FACS-Seq fitted mean (log10) [3]: -0.419 ± 0.053
- normalized RNA/DNA level with ligand (log10) [4]: 1.75 ± 0.14

Variant: AUAGAC
- FACS-Seq fitted mean (log10) [1]: -0.109 ± 0.028
- normalized RNA/DNA level without ligand (log10) [2]: 1.61 ± 0.05
- FACS-Seq fitted mean (log10) [3]: 0.0802 ± 0.041
- normalized RNA/DNA level with ligand (log10) [4]: 1.76 ± 0.091

Variant: AUAGAA
- FACS-Seq fitted mean (log10) [1]: -0.406 ± 0.06
- normalized RNA/DNA level without ligand (log10) [2]: 1.39 ± 0.077
- FACS-Seq fitted mean (log10) [3]: -0.217 ± 0.058
- normalized RNA/DNA level with ligand (log10) [4]: 1.61 ± 0.093

Variant: AUGCCA
- FACS-Seq fitted mean (log10) [1]: -0.283 ± 0.032
- normalized RNA/DNA level without ligand (log10) [2]: 1.704 ± 0.0062
- FACS-Seq fitted mean (log10) [3]: 0.176 ± 0.089
- normalized RNA/DNA level with ligand (log10) [4]: 1.84 ± 0.08

Variant: AUAAAG
- FACS-Seq fitted mean (log10) [1]: -0.485 ± 0.024
- normalized RNA/DNA level without ligand (log10) [2]: 1.56 ± 0.038
- FACS-Seq fitted mean (log10) [3]: -0.249 ± 0.071
- normalized RNA/DNA level with ligand (log10) [4]: 1.73 ± 0.14

Variant: CGUUUA
- FACS-Seq fitted mean (log10) [1]: -0.544 ± 0.037
- normalized RNA/DNA level without ligand (log10) [2]: 1.32 ± 0.077
- FACS-Seq fitted mean (log10) [3]: -0.288 ± 0.098
- normalized RNA/DNA level with ligand (log10) [4]: 1.46 ± 0.064

Variant: CGUUUU
- FACS-Seq fitted mean (log10) [1]: -0.597 ± 0.085
- normalized RNA/DNA level without ligand (log10) [2]: 1.46 ± 0.052
- FACS-Seq fitted mean (log10) [3]: -0.329 ± 0.11
- normalized RNA/DNA level with ligand (log10) [4]: 1.61 ± 0.098
